# Laboratory results reported in the DeepSol protein solubility set.
# Test: soluble on expression in E. coli; label from the status in PepcDB or PDB records
row,Sequence,soluble on expression in E. coli
1,MGSDKIHHHHHHMDHIQAMRVFVRIVELGSFSRAAERLALPRATVSNTIKQLEGRLGVRLLQRTTRQVQITDEGRVYYERCLQLLAEIEEIDTLFTQQKLQPVGKVRVDMPHSLAREIVVPALGEFYARYPQVTLMLSANDAAINVLREGVDCVLRAWQTDDETLATRHLPSMPQVTCASADYLARYGVPRSLDELSGHHMVGYFSLRTEYLYPLEFMSGDERITRMLPGTLQVNGADAYIAGACAGLGIIQAPRRGLISLLDGGELVEILPEIPPPAMPLYVMYTPGRFLAPRIRVFIEWLDELFTRNAAVR,not soluble
2,QQCGQTAPLINERLSYMKDVAGYKAENHLPIEDRIQEEKVINSAMAQAESLGLNGESIKPLMVAQINAAKAIQYRYRADWLSQPEPGWQPKPLDDVRANIGELSTKILEQIAEELKTCKPAEMGDKAHFINTIRQHNLTSADVEAIFSTFNQVKLK,soluble
3,AKPIDVSRLDLRIGCIITARKHPDADSLYVEEVDVGEIAPRTVVSGLVNHVPLEQMQNRMVILLCNLKPAKMRGVLSQAMVMCASSPEKIEILAPPNGSVPGDRITFDAFPGEPDKELNPKKKIWEQIQPDLHTNDECVATYKGVPFEVKGKGVCRAQTMSNSGIKLEHHHHHH,soluble
4,MGSDKIHHHHHHMDTAPLLPSSIRDQFTREVVYLNTATCGLPPRVAHEATLAVERDRARGRLTLDIAHQAVERSRAAFARLVGVPVSRVAVGSQASFFVGLVAASLPPGATVVVAEEDFTSVTYPFLAATGRGVTVRPVPLDRIIDAVDTSVDLVSVSVVQSADGRIVDVPALLDAAATHGARVLLDTTQSSGWLPIPADRVDYLVCSAYKWLLGPRGACFFAGTDDALAELTPIAANWFAAEDITSAFYGTELRLASDARRFDLSPAWASCVGLAPALELLADLGEAALGAHNVALANRFCAALGLPPTDSAIVSVAVDAKAQQVLADAGIVAAMRAGRMRCAFHLSTDAADVDRAVEEIGPYLRDANLEEAVRVPGDR,not soluble
5,HMTPQDHEKAALIMQVLQLTADQIAMLPPEQRQSILILKEQIQKSTGAP,soluble
6,MTSDTIRQTLDELLLDKNGGSSNEARAFFLSQIIDQLKLISSQTDAERQLQKLQLKDPNDNIVKATPPPPPPPPPLISILQQAPPPPPPPPPPTLKAPPPPPILGLKTPSKSLKTPTPRPKECPTSFLPKKEKKTKTRTVQWSKINASVVQDDSVWGKLAKASNVDIDFDLLDNFFGIESLAVSGAAEVVKVGILRALGKNYKKISKKIFNPKKHFFFLLKISNSLNFQKSTRKDAHVELLTAKRSQNVAIMLKQFKNIDELIDDVSQNKPVAEIDALQNLFGMLPQSEEEEALRRYTGDISLLSPPSSFFYRLVQIQFYRLRIETQIFLSDFSRLMRELAPNVEILIRTSQEILTSPTLPRLLLIFVNMGNYLNGNNSQGNAFGFTLNSLWKLIDLKGNKQEFSLLHLLVTCEPDLVAHLQEELSTLKDASQISFDEIKISLKTLRDGRCKLEKQLETCSGASFTQFLELIKIDCKFELDEFGANYDKLTELQYQLADYFCENRNTFQLDECLKIFNFLMNRLQQTLKEHVTRETRKLKKEEKKETQTTRECEKTMKKPEKIDLFDALTASNGGPESPRKRAAGILDMRQKLGNVRIRKLRDVTTLESSFTPPPPPPLESPTDSTSSKENESVKPAKTSTNYEMCNDLESYITSLTRKRASHLPKAPPKEEPKLPEVLPEKSKIALKIEKIPEKIDKPPLPQAAPIIPKLPQKSIKAPSTVTTRSKVPPPTAAAAVRIVSVTTTTTPTKTAELRKPGARSPKTTVATVPKVTVVPVSRVPVAPSTPLSRRMSAPVVRKPTMTAEKKREITMKPSVSTSARPSLINTSSHPMVRSPLPKMSVLEKPKPLRITRPTVIPQSPTVTSSARPSGLRQPAKPKWV,not soluble
7,MKIPIPSIGHVALLASAILFASSANAASDEDGIIIYNAQHESFAKSWAEGFTKDTGIKVTLRNGKDSELGNQLIQEGSSSPADVFLTENSPAMVLVDNAKLFAPLDAATQAQVAKEYRPEDGRWTGIAARSTVFVYNPAKISEAELPKSLMDLAKPEWKGRWAASPSGADFQAIVSAMLALKGEQATLEWLKAMKTNATAYKGNSTVMKAVNAGQIDGGVIYHYYPFVDQAKTGENSGNIKLHYFKNKDPGAFVSISGAGVLASSKHPQQAQKFVQWVTGKAGQDFLRESNSAFEYAVGVNAASNPKLVPLKDLDPPKVEVSKLNSKKVVELMTEAGLL,not soluble
8,GMEKLSAIKKPDINVADAWEQYWNKTLVNSTPVLWDANVERAVVVDLPRFELLFNPELPLIDFACGNGTQTKFLSQFFPRVIGLDVSKSALEIAAKENTAANISYRLLDGLVPEQAAQIHSEIGDANIYMRTGFHHIPVEKRELLGQSLRILLGKQGAMYLIELGTGCIDFFNSLLEKYGQLPYELLLVMEHGIRPGIFTAEDIELYFPDFEILSQGEGLFQSIHKLPDGNYATPPAFWAVIKHR,soluble
9,MLARYLNLIGRRSASPYRPQRLPAKFDNVIVAMSSGVDSSVAAALFAGEFPNTRGVYMQNWSESQSLDDPGKEPCYERDWRDVNRVAKHLNIRVDKVNFEQDYWIDVFEPMLRGYSEGSTPNPDIGCNKFVKFGKLREWLDEKYGTGNYWLVTGHYARVMQEMNGKGLFHLLRSIYRPKDQSYYLSQINSTVLSSLLLPIGHLTKPEVRDLAKYAGLPTAEKPDSQGICFVNNSQHGKFKNFLKHYLPSSPGDIITVDPQSGAKTTWGRHDGLWSYTIGQKVGISMPQADPNYQGTWFVSEKLRDTNEILIVRGRDNPALYSDTMRIENFSSLGPREDTINAFQNTGALTLQFRSLQVPVQIKSCKLNRSADNLDITIHLASKQRAITPGQSCCLYIDDRVLGSGPISHVNNNDTHA,soluble
10,MELAKKTGATVIGSAEMADYLSSYHGVENVHGMNIGGKANFDFGSVKFVQAFHSSSFTHENGIPVYLGMPMGIVFEVEGKTIYHTGDTGLFSDMSLIAKRHPVDVCFVPIGDNFTMGIDDASYAINEFIKPKISVPIHYDTFPLIEQDPQQFKDAVNVGDVQILKPGESVQFLEHHHHHH,not soluble
11,MVYSVPMMCAQDLRRSAMLDVVVAGGGYVGLSAAVAIKQAAPHLNVQVIEAAPDDVWKKDVRASAVIAAATRMLDVFGIWNEIEPEAQPIHKMVVTDSKTADPVRPVFLTFDGAVEEGRPFAHMVPNVAMVSALRGLCERIGIKIRHGISVSGFTAGPQSTAITLSDGTSLEARLLIACDGVRSALRDMAGIKTVHWAYDQSGIVTTVEHERPHEGCAEEHFLPSGPFAVLPLKGNRSSLVWTERTADAVRLVASDDLVFEEELERRFGHKLGPVRPVGPRRAFPLGLTLARSFVAPRFALAGDAAHGIHPISGQGLNLGFKDVAALAETVVEADRLGLDIGSLNVLERYQSWRRFDTLRMGVTTDVLNRLFSNDVGPIRVMRDFGLGVVDRLPGLKSYFIGQAAGTTDANAPRLLAGEALLEHHHHHH,not soluble
12,MSLSAFDAFPLGQPAFVTNILDRAAHLRRDDEKLFALEQKPSSRAYVVHRDSLLVKREGENVRALLGIDEALKCGANPGTIFLGLRDGAAVFGMGLSQAAAEKLVGREDYSLTELRGMAMQGAIPPDELSAIAMAKSMVSWHQRHGYCANCGTRSAMKEGGWKRDCPACKAEHFPRTDPVVIMLVASGEKCLLGRQKQFPPGMFSCLAGFVEAAETIEDAVRREILEESGIRCTDVQYYMTQPWPYPSSLMIGCSARALNEDIVVDHSELEDARWFTREEAALMLTRTHPDGLAGPHPFAIAHHLLGRWVHDKSGEGHHHHHH,soluble
13,MAHHHHHHMIPRYDGLVPAIRGPASACAVASVNATPSSTTKRTAAATTVARYVICPVETTGTENAHVNATAERERRLFAFLPSVDCAAPPRELRVSSHYFEDALVASVASSDAESGEDLDEGEESHTSTARRGNTREDGAHGSNSGSRKRRRARRREPMRLEYDGFLAPATEATKRVRLVSTPASEYSHLTCVLLQLPTAWREQDMDEGEGHGRTACVSSSSTSKPLITSMPLRRPILQLWGERNTAAAGPNDGSLCTGSSAASISAAWGSDTRLQISKKDWKTMDAAEEDLHKPTNWSDDDGGDASDEGRGKSASGADDAISARARKREREEATSIAVRSFLAGTKEALRQQGAVGAADGFAQPQPAVRSDNAAPVSARVETSAPVKAAAKRATVTVPLSSGSSGSRVRSSVATPAVPPTHALTTNSAAPLPSSGVAPPDGSASLDSLACTVVTGMLSSEARRAATLMELQKRILKQLPEFATMSQKMKSTATKQEAVAWFQTSQQALRAWLVEHGHTIDSDGTVTFGDA,not soluble
14,AHHHHHHGSLEVQGISKKWKDFHLKDISFSVMDGEYFIVLGPSGAGKTVLLEIIAGIIPPDGGKVLLDGKDITLLPPEKRGIAYVPQNYALFPNMSVFDNIAFGLKVRRVPRSEIEKRVLEISEVLGIRHLLHRKPRTLSGGEQQRVAVARALVIEPEIILLDEPFANLDVQIRSRLINEMKRWRRELGFTAIHVTHSFEEALALGDRVGIMLNGKLVQVGEIREVFSRPNSEEVAKFLGFENIIEGIADGRVLHVGKLRIELPLEAKGRVRIGIRPEDILISTERIKTSARNVFKAKVEAIEDVGPLVKLTLNVCDITLRAFITRSSLVELGIEEGKEVYASFKASAIHVF,soluble
15,GMNQAMDTKQIAPFTLALPEGEALPLVCDSPHSGTFYPADFGAVVAPERLRGGEDTHVDALWEAVPRVGGTLLAATFPRVYIDPNRMLDDIDPAQLEGPWPTPLAPGEKTRLGYGLIWSNVDAATPIYDRKLTVAEVQRRINRYYRPYHAALTEAVEGAYQRFGAVWHLNLHSMPNNAYERLKIQSPRPLADFVLGDRDGTTCEPGLVDLVERELREKGYTVARNDPYKGVQLIAQIGRPAERRNSLQIEIRRPLYMEEGTRERNEGFATLQRDLTLLTLRIAEYVRRGV,soluble
16,MGSDKIHHHHHHMQSTALRYFLEVARCGSISEASVRLNVASSAVSRQISKLERELDALLFERQARGMMLSEAGIRLAAYARKSQLEAEQVVLEITELQGLQRGHVRIACSEGFALDFLPQCIARFRRLYQGIHFSMEVCAPAQATERVRSGDADLCLTFSLTPQNEIKVEHIHSGAICAVVSHNHPLASRKEVALAELQPYAIALTNTDTTLRQLFDICCGVQGLMFDPVLTSNYIGSLLRFVSEEGGISLSSEMTLDKRVHEKQLKSLPISDEGMKARRIELQSMAGRNLPAAVAAFRDFLIEELAKT,not soluble
17,MKQTNPFVYSNDNKRYHTWNYCLREEFGQKTYKVALDGGFDCPNRDGTVAHGGCTFCSAAGSGDFAGNRALDLKVQFQQVRDKMQTKWKDGKCIAYFQAFTNTHAPVAELREKFETVLNEPGVVGLSIATRPDCLPDDVVEYLAELNERTYLWLELGLQSAHDETGRLINRAHDYDCYLEGVRKLQKHNIRICTHIINGLPKETPEMMMETAQKVVESGVDGIKIHLLHLLKGTPMVEDYKKGDLEFLTRDGYVNLVADQLEILPPEMVIHRITGDGGVDDLIGPVWSLNKFEVLNAIDAELVRRDSWQGKLYQPVEVSSK,not soluble
18,GMAVECIKDKVTRYPERASYSDEDLVAMLDRNFTCTVSFIDGGIPYAIPMMLASEGKTIYLHGSMKSRIYGILKTGQLIAISLLEINGIVLAKEIKNNSINYVSALIFGRPYEIDDTEKKIEVFRLLTEKLVKGRWDNSIKPSYEDLNGVFVFAVKPETFSMKARTGPPHDTSTDDIWSGVLPIQHTISEAGENAPEYVKSLYGKRIFI,soluble
19,MAHHHHHHMAATKSAVSAAKRKAAKKVSRKSPEYTTLRKSCAPGAIAIILAGRFRGRRAVILKQLPHNGPLVVSGPMKYNGVPIRRIDSRYVIATSTTVDISSVDTAPITAEVFQRPKAEKPTKSEGDFMGDKQKAKAEKAAKKTSKAGKKTLVSDARAQLQKKIDAALIAAIKKDAQGKEKAGYLRSVFTVKPGDAPHRWNW,not soluble
20,MAHHHHHHMLVRSITKCVVPLIKATSYTSSYIVEHPPTPVRLTSMLPLHNKSMPTPLLDPERLQEISCGTGQPAQRGRRKPLVWKRRKPWFDHQWSLDLQRIKKGPETPHFPDGTPFTQIRSFQSFAGRSWKINAGRRRKIRLSLKRGRRKLL,not soluble
